Results taken from patent publication US20210253636A1.
One block for each binder: values may come before it. Where no end group is shown, it is not given here. The star is where a group is joined. biotin = biotin label attached through an aminohexanoic acid linker; Biotin = O=C1N[C@H]2[C@H](CS[C@H]2CCCCC(=O)*)N1; Ahx = NCCCCCC(=O)O

What was measured:
[1] = target: peptide-binding domain of GRP78 (GRP78-PBD, amino acids 421-639) (UniProt P11021); assay: SPR (BIACORE T200), N-biotin peptide on streptavidin CM5 chip, GRP78-PBD analyte
[2] = target: peptide-binding domain of GRP78 (GRP78-PBD, amino acids 421-639) (UniProt P11021); assay: SPR (BIACORE T200), C-terminal biotin peptide on streptavidin CM5 chip, GRP78-PBD analyte

Chain of peptide-binding domain of GRP78 (GRP78-PBD, amino acids 421-639) (P11021 421-639 limits assumed, form in doubt): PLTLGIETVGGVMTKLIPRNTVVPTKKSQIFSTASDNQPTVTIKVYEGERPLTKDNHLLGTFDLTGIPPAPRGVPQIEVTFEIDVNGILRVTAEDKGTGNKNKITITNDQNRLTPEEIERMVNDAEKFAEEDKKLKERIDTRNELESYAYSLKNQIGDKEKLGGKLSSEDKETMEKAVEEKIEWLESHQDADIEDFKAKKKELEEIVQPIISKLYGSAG

- Kd [1]: 2.1 µM
- koff [1]: 0.0017 s⁻¹
- kon [1]: 790 M⁻¹ s⁻¹
B1: F4P13-TR-CTP, N-terminally extended with GGGGS and N-terminally biotin-labeled (peptide)
peptide: {biotin-Ahx}-GGGGSRPFLFPFLFY

- Kd [1]: 1.2 µM
- koff [1]: 0.0028 s⁻¹
- kon [1]: 2300 M⁻¹ s⁻¹
B2: F4P6-TR-CTP, N-terminally extended with GGGGS and N-terminally biotin-labeled (peptide)
peptide: {biotin-Ahx}-GGGGSRPFLPFLPY

- Kd [1]: 1 µM
- koff [1]: 0.00091 s⁻¹
- kon [1]: 890 M⁻¹ s⁻¹
B3: F5P6-TR-CTP, N-terminally extended with GGGGS and N-terminally biotin-labeled (peptide)
peptide: {biotin-Ahx}-GGGGSRPFLPFLPYRPFLPFLPY

- Kd [2]: 0.66 µM
- koff [2]: 0.0012 s⁻¹
- kon [2]: 1800 M⁻¹ s⁻¹
B4: F4P13-TR-CTP with C-terminal biotin (extended at the C-terminus with GGGGSK, biotin on the C-terminal lysine) (peptide)
peptide: RPFLFPFLFYGGGGSK(Biotin)

- Kd [1]: 0.61 µM
- koff [1]: 0.0012 s⁻¹
- kon [1]: 1900 M⁻¹ s⁻¹
B5: F5P13-TR-CTP, N-terminally extended with GGGGS and N-terminally biotin-labeled (peptide)
peptide: {biotin-Ahx}-GGGGSRPFLFPFLFYRPFLFPFLFY

- Kd [2]: 2.7 µM
- koff [2]: 0.002 s⁻¹
- kon [2]: 970 M⁻¹ s⁻¹
B6: P13-CTP-cBiotin (P13-CTP extended at the C-terminus with GGGGSK, biotin on the C-terminal lysine) (peptide)
peptide: RLLDTNRPFLFYGGGGSK(Biotin)

- Kd [1]: 2.7 µM
- koff [1]: 0.0034 s⁻¹
- kon [1]: 1200 M⁻¹ s⁻¹
B7: P13-CTP, N-terminally extended with GGGGS and N-terminally biotin-labeled (peptide)
peptide: {biotin-Ahx}-GGGGSRLLDTNRPFLFY

- Kd [2]: 1.2 µM
- koff [2]: 0.00029 s⁻¹
- kon [2]: 240 M⁻¹ s⁻¹
B8: MF4P13-TR-CTP-cBiotin (F4P13-TR-CTP with a methionine added at its N-terminus, C-terminal GGGGSK, biotin on the C-terminal lysine) (peptide)
peptide: MRPFLFPFLFYGGGGSK(Biotin)

- Kd [1]: 1.9 µM
- koff [1]: 0.003 s⁻¹
- kon [1]: 1500 M⁻¹ s⁻¹
B9: P6-CTP, N-terminally extended with GGGGS and N-terminally biotin-labeled (peptide)
peptide: {biotin-Ahx}-GGGGSRLLDTNRPFLPY
